The subject of series [1] is Verticillium dahliae. The following applies: low salt in vitro assay conditions; U.S. Pat. No. 6,916,970; cited from earlier work.
The test system of series [2] is Fusarium culmorum. The following applies: low salt in vitro assay conditions; U.S. Pat. No. 6,916,970; cited from earlier work.
Series [3] concerns F. graminearum PH-1. It counts as cell-based, Fusarium graminearum.
Series [4] in a line: protein-lipid overlay (PIP Strips). It counts as binding. On the procedure:
(§1) To test the binding properties of MtDefS peptide A (MtDefS Peptide A; SEQ ID NO:4) and MtDef5FL1 (SEQ ID NO:7), a protein-lipid overlay experiment was performed using PIP Strips™ (2×6 cm nitrocellulose membranes) that are spotted with 100 pmol of various biologically active lipids (Echelon Biosciences, Salt Lake City, Utah). Briefly, lipid strips were blocked with 10 mL of blocking buffer, PBS-T/3% fat free BSA for 12-16 h at 4° C. with gentle agitation. The blocking buffer was discarded and the lipid strips were incubated with 5 mL of PBS-T/3% fat free BSA containing 1 μg/ml of MtDef5 peptide A or MtDef5FL1 for 60 min at 4° C. After hybridization, protein solution was discarded and the strips were then washed with PBS-T three times with gentle agitation for 20 minutes each at room temperature. The protein-lipid interactions were detected by subsequently incubating lipid strips with rabbit anti-MtDef5 peptide A derived synthetic peptide (1 μg/ml) diluted in 5 mL of blocking buffer with gentle agitation for 60 min at 4° C. The lipid strips were washed with PBS-T two times with gentle agitation, for 15 minutes each wash, at room temperature. HRP-conjugated Goat Anti-Rabbit IgG secondary antibody (Thermo Scientific, Cat no: SA 1-9510) diluted 1:4000 in blocking buffer was added to the lipid strips and incubated for 60 min at 4° C. After two washes with PBS-T, chemiluminescence was detected using SuperSignal® West Femto Maximum Sensitivity substrate kit (Thermo Scientific, Cat no: 34094) following the manufacturer's protocol.
(§2) To test the binding properties of MtDef5 and its γ-core motif variants, a protein-lipid overlay experiment was performed using PIP Strips™ (2×6 cm nitrocellulose membranes) that are spotted with 100 pmol of various biologically active lipids, respectively (Echelon Biosciences, Salt Lake City, Utah). To determine relative degree of the binding of MtDef5, PIP Array (Echelon Biosciences, UT) pre-spotted with concentration gradient of various phosphoinositides was used. Briefly, lipid strips and arrays were blocked with 10 mL of blocking buffer, PBS-T/3% fat free BSA for 12-16 h at 4° C. with gentle agitation. The blocking buffer was discarded and the lipid strips and arrays were incubated with 5 mL of PBS-T/3% fat free BSA, containing 3 μg/ml of MtDef5 or its variants for 60 min at 4° C. After hybridization, protein solution was discarded and the strips and arrays were then washed with PBS-T three times with gentle agitation for 20 minutes each at room temperature. The protein-lipid interactions were detected by subsequently incubating lipid strips and arrays with rabbit anti-MtDef5 derived synthetic peptide (1 μg/ml) antibody diluted in 5 mL of blocking buffer with gentle agitation for 60 min at 4° C. The lipid strips and arrays were washed with PBS-T two times with gentle agitation, for 15 minutes each wash, at room temperature. HRP-conjugated Goat Anti-Rabbit IgG secondary antibody (Thermo Scientific, Cat no: SA 1-9510) diluted 1:4000 in blocking buffer was added to the lipid strips and arrays and incubated for 60 min at 4° C. After two washes with PBS-T, chemiluminescence was detected using SuperSignal® West Femto Maximum Sensitivity substrate kit (Thermo Scientific, Cat no: 34094) following the manufacturer's protocol.

Series [5] can be described thus: protein-lipid overlay (PIP Strips, PIP Array). It is filed as binding. The following applies: for binding to PI3P, PI4P and PI5P: Example 2, PIP Strips, 1 μg/ml protein, FIG. 9. On the procedure:
as §1
as §2, with “After hybridization, protein solution was discarded and the strips and arrays were then washed with PBS-T three times with gentle agitation for 20 minutes each at room temperature.” left out, “The lipid strips and arrays were washed with PBS-T two times with gentle agitation, for 15 minutes each wash, at room temperature. HRP-conjugated Goat Anti-Rabbit IgG secondary antibody (Thermo Scientific, Cat no: SA 1-9510) diluted 1:4000 in blocking buffer was added to the lipid strips and arrays and incubated for 60 min at 4° C.” left out

Series [6] can be described thus: protein cross-linking (BS3) oligomerization assay. The following applies: SDS-PAGE, FIG. 19, FIG. 23. On the procedure:
(§3) To determine the oligomeric status of MtDef5FL1 and its γ-core motif variants, protein cross-linking experiments were performed in the presence or absence of PIPs cross-linked with bis[sulfosuccinimidyl] suberate (BS3) substrate. Briefly, MtDef5 and its γ-core motif variants, prepared in 1× PBS buffer, at 1.5 mg/ml (5 μl) were incubated with 2.73 mM PI(3)P or PI(4)P or PI(5)P (1.5 μl) at room temperature for 30 min. The cross-linking reaction was initiated by addition of freshly dissolved water soluble 12.5 mM BS3 (0.5 μl) and incubated for 30 min at room temperature. After crosslinking, samples were reduced with 100 mM dithiothreitol (DTT) and separated on a 4-20% (Bio-Rad, TGX Stain-Free™ precast gels) SDS-PAGE. The oligomerization pattern was visualized using a Bio-Rad ChemiDoc XRS+ system.

Series [7] deals with the molecule itself. As to the kind of experiment: BS3 cross-linking with PIP, SDS-PAGE; self-oligomerization. The protocol: as §3
The nature of series [8]: phospholipid binding / protein-lipid overlay. The settings on record: Example 6, PIP strip, 3 μg/ml protein, FIG. 18A. On the procedure: as §2, with “After hybridization, protein solution was discarded and the strips and arrays were then washed with PBS-T three times with gentle agitation for 20 minutes each at room temperature.” left out, “The lipid strips and arrays were washed with PBS-T two times with gentle agitation, for 15 minutes each wash, at room temperature. HRP-conjugated Goat Anti-Rabbit IgG secondary antibody (Thermo Scientific, Cat no: SA 1-9510) diluted 1:4000 in blocking buffer was added to the lipid strips and arrays and incubated for 60 min at 4° C.” left out

Series [9] has as its system Alternaria brassicicola. It counts as cell-based. The settings on record: Example 6, FIG. 15.
Series [10] concerns N. crassa. It is filed as cell-based, Neurospora crassa.
The test system of series [11] is Botrytis cinerea. It is filed as cell-based. The settings on record: Example 6, FIG. 15.
Series [12] relates to Colletotrichum higginsianum. It is filed as cell-based. The following applies: Example 6, FIG. 15.
The subject of series [13] is Fusarium virguliforme. It counts as cell-based.
The test system of series [14] is F. graminearum. It counts as cell-based, Fusarium graminearum.
The test system of series [15] is F. virguliforme. It counts as cell-based, Fusarium virguliforme.
Series [16] has as its system Neurospora crassa. It counts as cell-based.
In series [17] the test system is F. graminearum conidia and germlings. It counts as cell-based, Fusarium graminearum. The settings on record: DyLight550-labeled, 3μM, 3 hr, FIG. 17.
[18] abbreviates: Example 6, FIG. 14, read-out: IC50 value against F. graminearum.
[19] abbreviates: Example 2, PIP Strips, 1 μg/ml protein, FIG. 9.
Where [20] appears, read: activity of the indicated protein against Fusarium graminareum, Table 1, read-out: IC50 (nm).
[21] abbreviates: Example 6, PIP strip, 3 μg/ml protein, FIG. 18A.

Data on seven molecules can be found in patent US20190194268A1 (DONALD DANFORTH PLANT SCIENCE CENTER, published 2019).

“And” between values parts separate entries of the source, which are not always exact repeats. Equal values may be shown once. “Also recorded” adds a separate entry of the source. Read-outs that look alike come from different tables or passages of the source.

Turning to “MsDef1: Alfalfa (Medicago sativa) Defensin 1, SEQ ID NO:79 (RTCENLADKYRGPCFSGCDTHCTTKENAVSGRCRDDFRCWCTKRC; listed as Medicago sativa)”, the “IC50, Verticillium dahliae growth” value in series [1] is 4 µg/mL. For the same molecule, in series [2], the “IC50, Fusarium culmorum growth” value is 1 µg/mL.
One may read the IC50 as the point on the concentration scale where inhibition reaches its midpoint. Turning to “MtDef4: Medicago truncatula defensin peptide, SEQ ID NO:76 (RTCESQSHKFKGPCASDHNCASVCQTERFSGGHCRGFRRRCFCTTHC; listed as Medicago truncatula) [reference compound]”, the “minimal inhibitory concentration (MIC or IC100) against F. graminearum” value in series [3] (Example 6, FIG. 14) was found to be 6 µM. Besides, in series [3] (setting [18]), the IC50 lay in the range of 750 to 1500 nM.
Consider “MtDef5A: single 50-amino acid MtDef5 defensin peptide A, SEQ ID NO:4 (KLCQKRSTTWSGPCLNTGNCKRQCINVEHATFGACHRQGFGFACFCYKKC; listed as Medicago truncatula)”, for which, in series [4] (setting [19]), the “binding to PI3,4P2” value is “also binds”, the “binding to PI3,5P2” value is recorded as “also binds”, the “binding to PI4,5P2” value is listed as “also binds” and the “binding to PS” value was “fails to bind”. For the same molecule, in series [3] (setting [20]), the half-inhibitory concentration (IC50) lay within 500 to 750 nM. Besides, the “binding to PI3P, PI4P and PI5P” value in [5] was “much less affinity than MtDef5FL1”.
For the molecule “NaD1: Nicotiana alata defensin peptide, SEQ ID NO:81 (RECKTESNTFPGICITKPPCRKACISEKFTDGHCSKILRRCLCTKPC; listed as Nicotiana alata) [reference compound]”, the IC50 in series [3] (setting [20]) is 500 nM.
As to “TPP3: Tomato (Solanum lycopersicum) defensin peptide, SEQ ID NO:83 (QQICKAPSQTFPGLCFMDSSCRKYCIKEKFTGGHCSKLQRKCLCTKPC; listed as Solanum lycopersicum) [reference compound]”, the IC50 in series [3] (setting [20]) is 500 nM.

B1: MtDef5FL1_V1 (other)
chain: KLCQAASTTWSGPCLNTGNCKRQCINVEHATFGACAAQGFGFACFCYKKCAPKKVEPKLCEAASKTWSGPCLISGNCKRQCINVEHATSGACAAQGIGFACFCKKKC
notes: Alanine variant expressed in P. pastoris; also called MtDef5FL1 γ-core motif variant V1
Turning to B1, in series [6], the “oligomerization in presence of PIPs” value is recorded as “no formation of higher order oligomers”. Besides, in series [7], the binding result is “no binding (tested: 1.5 mg/ml protein)”.

B2: MtDef5FL1: Medicago truncatula protein with MtDef5 defensin peptides A and B connected by a 7-amino acid linker; SEQ ID NO:7, expressed in Pichia (protein, listed as Medicago truncatula)
chain: CQKRSTTWSGPCLNTGNCKRQCINVEHATFGACHRQGFGFACFCYKKCAPKKVEPKLCERRSKTWSGPCLISGNCKRQCINVEHATSGACHRQGIGFACFCKKKC
For B2, in series [8], the “binding to phoshatidic acid (PA)” value is “binds to a lesser extent”. Besides, the “antifungal activity against Alternaria brassicicola” value in series [9] is recorded as “potent antifungal activity”. In addition, the “SG uptake (plasma membrane permeabilization)” value in series [10] is “SG uptake was observed”; in series [14] (0.180 μM (IC100) protein + 0.5 μm SG, 2 hrs, FIG. 6), “SG uptake was observed”; in series [15] it was “SG uptake was observed”. The “SG uptake in hyphal cells” value in [10] is “SG uptake was visible”; in series [14] (0.75 μM MtDef5FL1, 3 hr, FIG. 16), “SG uptake was visible”. Moreover, the “antifungal activity against Botrytis cinerea (Bci)” value in [11] is “potent antifungal activity”. The “binding to PI3,4P2” value in series [4] (setting [19]) is recorded as “binds to a lesser extent”. In addition, the “binding to PI3,5P2” value in [4] (setting [19]) and in series [4] (setting [21]) was “binds to a lesser extent” each time. For the same molecule, the “binding to PI4,5P2” value in series [4] (setting [19]) and in series [4] (setting [21]) was “binds to a lesser extent” throughout. For the same molecule, in series [4] (setting [19]), the “binding to PS” value is “binding to PS, is generated”. For the same molecule, the “binding to phosphatidylserine (PS)” value in series [4] (setting [21]) was “binds to a lesser extent”. In addition, the “antifungal activity against Colletotrichum higginsianum” value in series [12] was “potent antifungal activity”. The “IC100 value against F. virguliforme” value in series [13] came to 0.18 µM. Moreover, the “antifungal activity against F. virguliforme” value in [13] is given as “potent antifungal activity”. Further, the “concentration inhibiting conidial germination completely (100% growth inhibition)” value in series [13] was determined as 0.18 µM; in series [16] it was 0.18 µM; in series [3] (microscopic observation after 14-16 hr incubation, FIG. 5B) it was 0.18 µM. Also, the IC50 was 90 nM in series [13] (read-out: IC50 value against F. virguliforme); 90 nM in series [16] (read-out: IC50 value against N. crassa); 250 to 300 nM in [16] (read-out: IC50 value against Neurospora crassa); 90 nM in series [3] (Example 1, FIG. 5A, read-out: IC50 value against F. graminearum); 250 to 300 nM in [3] (setting [18]); 90 nM in series [3] (setting [20]). Also, the “IC100 value against N. crassa” value in [16] was 0.18 µM. Besides, the “minimal inhibitory concentration (MIC or IC100) against Neurospora crassa” value in series [16] was 0.7 to 0.75 µM and 0.75 µM. The “oligomerization in presence of PIPs” value in series [6] is “formed higher-order oligomers only in the presence of PIPs; also recorded: forms higher order oligomers in presence of PIPs”. Moreover, the “IC100 value against F. graminearum” value in series [3] (Example 1, FIG. 5A) worked out at 0.18 µM. In addition, the “minimal inhibitory concentration (MIC or IC100) against F. graminearum” value was 0.75 µM in series [3] (Example 6, FIG. 14) and 0.7 to 0.75 µM in series [3] (Example 6, FIG. 14, listed as MtDef5). Besides, in [3] (against F. graminearum), the “potency relative to MtDef4, based on the MIC values” is recorded as 3 to 5 fold. Moreover, the “binding to PI3P, PI4P and PI5P” value in series [5] is on record as “strongly binds; also recorded: significantly increases its binding affinity”. In addition, in series [5] (Example 6, PIP strip, 3 μg/ml protein, FIG. 18A, FIG. 22), the “binding to PI3P, PI4P and PI5P (PIPs)” value was “strongly binds”. Also, the “amount of PIP per spot at which binding to all three PIPs was observed” value in series [5] (PIP Array, FIG. 18B) was ≤ 12.5 pmoles per spot. The “internalization and localization in fungal cells” value in series [17] is listed as “is internalized by fungal cells; also recorded: diffuse localization within the cytoplasm”.
